In patent US10610603B2, “Thymidine kinase gene” (GenVivo, Inc., priority 2013, dated 2020):

B1: A168H and mutated at amino acids 159-161 from LIF to IFL: mHSV-TK CO MB-IFL A168H(IFL . . . AHL) (nucleic acid)
chain: GTCAGCGGCCGCACCGGTACGCGTCCACCATGGCCAGCTACCCCGGCCACCAGCACGCCAGCGCCTTCGACCAGGCCGCCCGCAGCCGCGGCCACAGCAACGGCAGCACCGCACTGCGGCCACGGCGCCAGCAGGAGGCCACCGAGGTGCGCCCCGAGCAGAAGATGCCCACCCTGCTGCGCGTGTACATCGACGGACCACACGGCATGGGCAAGACCACCACCACCCAGCTGCTGGTGGCCCTGGGCAGCCGCGACGACATCGTGTACGTGCCCGAGCCCATGACCTACTGGCGCGTGCTGGGCGCCAGCGAGACCATCGCCAACATCTACACCACCCAGCACCGCCTGGACCAAGGCGAGATCAGCGCCGGCGACGCCGCCGTGGTGATGACCAGCGCCCAGATTACAATGGGCATGCCCTACGCCGTGACCGACGCCGTGCTGGCACCACACATCGGCGGCGAGGCCGGCAGCAGCCACGCACCACCACCAGCACTGACCATCTTCCTGGACCGGCACCCAATCGCACACCTGCTGTGCTACCCGGCAGCACGCTACCTGATGGGCTCCATGACACCACAAGCCGTGCTGGCCTTCGTGGCCCTGATCCCACCAACACTGCCCGGCACCAACATCGTGCTGGGCGCCCTGCCCGAGGACCGCCACATCGACCGCCTGGCCAAGCGCCAGCGCCCCGGCGAGCGCCTGGACCTGGCCATGCTGGCCGCCATCCGCCGCGTGTACGGCCTGCTGGCCAACACCGTGCGCTACCTGCAGTGCGGCGGCAGCTGGCGCGAGGACTGGGGCCAGCTGAGCGGCACCGCCGTGCCACCACAGGGCGCCGAGCCACAGAGCAACGCCGGACCACGACCACACATCGGCGACACCCTGTTCACCCTGTTCCGGGCACCAGAGCTGCTGGCACCAAACGGCGACCTGTACAACGTGTTCGCCTGGGCCCTGGACGTGCTGGCCAAGCGCCTGCGCTCCATGCACGTGTTCATCCTGGACTACGACCAGTCACCGGCCGGCTGCCGCGACGCCCTGCTGCAGCTGACCAGCGGCATGGTGCAGACCCACGTGACAACACCCGGCAGCATCCCAACAATCTGCGACCTGGCCCGCACCTTCGCCCGCGAGATGGGCGAGGCCAACTAATAGGGATCCCTCGAGAAGCTTGTCA
B2: SEQ ID NO: 18 (nucleic acid)
chain: GTCAGCGGCCGCACCGGTACGCGTCCACCATGGCCCTGCAGAAAAAGCTGGAAGAGCTGGAACTGGATGGCAGCTACCCCGGCCACCAGCACGCCAGCGCCTTCGACCAGGCCGCCCGCAGCCGCGGCCACAGCAACGGCAGCACCGCACTGCGGCCAGGATCTCAGCAGGAGGCCACCGAGGTGCGCCCCGAGCAGAAGATGCCCACCCTGCTGCGCGTGTACATCGACGGACCACACGGCATGGGCAAGACCACCACCACCCAGCTGCTGGTGGCCCTGGGCAGCCGCGACGACATCGTGTACGTGCCCGAGCCCATGACCTACTGGCGCGTGCTGGGCGCCAGCGAGACCATCGCCAACATCTACACCACCCAGCACCGCCTGGACCAAGGCGAGATCAGCGCCGGCGACGCCGCCGTGGTGATGACCAGCGCCCAGATTACAATGGGCATGCCCTACGCCGTGACCGACGCCGTGCTGGCACCACACATCGGCGGCGAGGCCGGCAGCAGCCACGCACCACCACCAGCACTGACCCTGATCTTCGACCGGCACCCAATCGCACACCTGCTGTGCTACCCGGCAGCACGCTACCTGATGGGCTCCATGACACCACAAGCCGTGCTGGCCTTCGTGGCCCTGATCCCACCAACACTGCCCGGCACCAACATCGTGCTGGGCGCCCTGCCCGAGGACCGCCACATCGACCGCCTGGCCAAGCGCCAGCGCCCCGGCGAGCGCCTGGACCTGGCCATGCTGGCCGCCATCCGCCGCGTGTACGGCCTGCTGGCCAACACCGTGCGCTACCTGCAGTGCGGCGGCAGCTGGCGCGAGGACTGGGGCCAGCTGAGCGGCACCGCCGTGCCACCACAGGGCGCCGAGCCACAGAGCAACGCCGGACCACGACCACACATCGGCGACACCCTGTTCACCCTGTTCCGGGCACCAGAGCTGCTGGCACCAAACGGCGACCTGTACAACGTGTTCGCCTGGGCCCTGGACGTGCTGGCCAAGCGCCTGCGCTCCATGCACGTGTTCATCCTGGACTACGACCAGTCACCGGCCGGCTGCCGCGACGCCCTGCTGCAGCTGACCAGCGGCATGGTGCAGACCCACGTGACAACACCCGGCAGCATCCCAACAATCTGCGACCTGGCCCGCACCTTCGCCCGCGAGATGGGCGAGGCCAACTAATAGGGATCCCTCGAGAAGCTTGTCA

Key:
Format in all cases: cell-based
[1] = test system: cancer cells; assay: GCV mediated cancer kill following retroviral transduction delivery
Excerpt: To our knowledge, this is the most GCV selective HSV-TK synthetic gene product for GCV activation which has no Thymidine activity (HAT assay) ever evaluated biologically.

[2] = test system: A375 human melanoma; assay: In vitro bystander assay; conditions: 0-100% HSV-TK-m2 cells, 5-20 μM GCV
Procedure: (§1) Cells are seeded at 1-4×10^4 cells/well in a 96 well plate, in triplicate, with mixtures of TK cells ranging from 0-100%. The next day GCV is added at doses ranging from 10 μm to 1 mM. Cells plates at confluency are split 1:30 into 3 plates, 20-24 hours after GCV addition. 5 days later, cells are analyzed by Presto Blue for live cell metabolism and read on a microplate reader. Cell plates at sub-confluency are analyzed 3 days after GCV treatment by Presto Blue.
(§2) A375 human melanoma and C6 rat glioma stable pure population cell lines were established containing the A168H mutated HSV-TK-m2 gene. The bystander assays were conducted by plating the cancer cells with mixtures of the parental non-HSV-TK-m2 cells with the corresponding HSV-TK-m2 cell line ranging from 0-100% HSV-TK-m2. The mixtures of cancer cells were subsequently exposed to 5-20 μM GCV and cell kill is plotted in the figures below.

[3] = test system: C6 rat glioma; assay: In vitro bystander assay; conditions: 0-100% HSV-TK-m2 cells, 5-20 μM GCV
Procedure: as §1, §2

| Molecule | GCV mediated cancer kill activity [1] | cell kill in mixed populations (bystander effect) [2] | cell kill in mixed populations (bystander effect) [3] |
| --- | --- | --- | --- |
| B1 | exhibited GCV mediated cancer cell kill activity |  |  |
| B2 | exhibited pro-drug GCV enzyme activity and selectivity for their ability to kill cancer cells | significant increases in the mixed populations over what would be considered theoretical | significant increases in the mixed populations over what would be considered theoretical |
